Experimental data reported in publication PMC11758708, “Natural variation in MdNAC5 contributes to fruit firmness and ripening divergence in apple”.

Molecular target: MdNAC5A (Malus x domestica (Fuji / Cripp's Pink), UniProt A0A498K6T8 1-364)
Experiment: EMSA; EMSA/Gel-Shift Kit (Beyotime) per instructions; buffer, salt, pH and temperature not stated
Conditions: protein: recombinant; tags: His (pET-32a); chain copies: 2; label: 3' biotin (both strands); blunt

Chain of MdNAC5A (A0A498K6T8 entry or part of it): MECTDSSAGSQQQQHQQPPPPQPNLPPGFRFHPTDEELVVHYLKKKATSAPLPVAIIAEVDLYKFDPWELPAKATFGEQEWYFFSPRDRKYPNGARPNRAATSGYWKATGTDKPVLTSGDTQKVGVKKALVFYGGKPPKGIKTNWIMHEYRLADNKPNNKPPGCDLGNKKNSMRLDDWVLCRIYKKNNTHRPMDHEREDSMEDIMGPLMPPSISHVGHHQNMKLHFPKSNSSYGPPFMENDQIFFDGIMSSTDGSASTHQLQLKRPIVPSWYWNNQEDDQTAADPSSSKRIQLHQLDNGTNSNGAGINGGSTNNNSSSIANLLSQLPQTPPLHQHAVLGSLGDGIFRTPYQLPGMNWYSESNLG

B1: MdACS1 probe (dsDNA)
DNA 1: CCTGTGACAATATTACATGTGGCATGTCAATTGAGA
DNA 2: TCTCAATTGACATGCCACATGTAATATTGTCACAGG
  binding result: binds
